These results are taken from article PMC9175105.

The target in assay [1] is shedded GPIbα or glycocalicin (UniProt P07359). Kind of assay: biomembrane force probe (BFP), adhesion frequency assay; bead-bead mode; VWF-A1 covalently linked to the probe bead, glycocalicin to the target bead; 20 pN impingement, 0.2 s contact; 200 approach-contact-retract cycles per probe-target pair, five pairs.
For assay [2] the target is unchanged. Kind of assay: biomembrane force probe (BFP), force-clamp assay; bead-bead mode; VWF-A1 on the probe bead, glycocalicin on the target bead; single bonds held at clamp forces of 10-70 pN; bond lifetime vs force; beads without treatment.
The target is the same in assay [3].

Substance “VWF-A1 with short N-AIM, high binder form, 1261^H-A1 (from UniProt P04275 1261-1472) (domain or fragment)” displayed an adhesion frequency (Pa) in assay [1] of 0.13. The substance further gave a peak bond lifetime at 20-25 pN in assay [2] of 2.26 s. In assay [3], this substance gave a mean rolling velocity of washed human platelets (native GPIbα) on coated 1261^H-A1 at 800 s^-1 of 3.15 μm s^−1 and a tethered platelet density; washed human platelets (native GPIbα) perfused at 800 s^-1 for 30 s over coated 1261^H-A1, no treatment of 0.0053 μm^−2.
